Results as given in US20090175881A1 (SCHERING, published 2009).

T1: rhIL-17A (human, UniProt Q16552 24-155)
T1 construct: Homodimer; expressed from adenoviral vectors in HEK 293 cells; also called recombinant human IL-17A; adenovirus-derived rhIL-17A
T1 sequence: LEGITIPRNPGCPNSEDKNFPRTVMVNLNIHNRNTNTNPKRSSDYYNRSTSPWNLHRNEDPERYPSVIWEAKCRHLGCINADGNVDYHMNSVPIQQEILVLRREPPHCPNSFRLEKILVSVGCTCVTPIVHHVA


Tests used:
rhIL-17A [1] = biological target: T1, rhIL-17A; assay: sandwich ELISA, IL-17A captured on rat 12E6, antibody titrated
Method: Binding of anti-human-IL-17A monoclonal antibodies to rhIL-17A is assessed using an ELISA as follows. Briefly, a capture antibody is bound to the wells of a microtiter plate, after which a fixed concentration of rhIL-17A is added. The monoclonal anti-IL-17A to be assayed is then titrated versus the bound rhIL-17A on the plate to determine the concentration of antibody needed to achieve half-maximal binding. A more detailed protocol follows.
A 96-well microtiter plate is coated with 100 μl/well of capture antibody (rat anti-hIL-17A 12E6, 0.5 μg/ml) in carbonate coating buffer pH 9.5 (the “assay plate”). Plates are incubated covered at 4° C. for 24 to 48 hours. The assay plate is washed three times in a plate washer (SkanWasher, Molecular Devices, Sunnyvale, Calif., USA) and blotted dry. The plate is then blocked with 200 μl/well of ELISA assay buffer (20 mM Tris-HCl, 0.15 M NaCl, pH7.4, 0.5% BSA, 0.05% Tween-20, SM EDTA) for one hour at 25° C. on an orbital shaker. The plate is washed, and 100 μl/well of either adenovirus-derived rhIL-17A or E. coli-derived human IL-17 (IL-17A) (R&D Systems, Minneapolis, Minn., USA) (0.1 g/ml) is added in ELISA assay buffer and incubated for 2 hours at 25° C. on an orbital shaker. […] Plates are incubated for 1.5 hours at 25° C. on an orbital shaker. Plates are washed and 100 μl/well secondary antibody (F(ab′)₂ goat anti-human kappa light chain—HRP, 1:20,000 dilution, BioSource, Carlsbad, Calif., USA) is added, except for assay blank wells. Plates are washed twice (i.e. two cycles of 3 washes per cycle) with plate rotation between cycles. TMB substrate (Kirkegaard & Perry Laboratories, Gaithersburg, Md., USA) is added at 100 μl/well and incubated 3-5 minutes on an orbital shaker. Stop solution is added (100 μl/well) and the plate is read for absorbance at 450-570 um on a plate reader (Versamax, Molecular Devices, Sunnyvale, Calif., USA).

rhIL-17A [2] = biological target: T1, rhIL-17A; assay: cell-based or functional assay
rhIL-17A [3] = biological target: T1, rhIL-17A; assay: cell-based or functional assay; remark: listed apart in the source
rhIL-17A [4] = biological target: T1, rhIL-17A; assay: KinExA, solution equilibrium
Method: The equilibrium dissociation constants (Kd) for anti human IL-17A antibodies were determined using the KinExA 3000 instrument (Sapidyne Instruments Inc., Boise, Id., USA). KinExA uses the principle of the Kinetic Exclusion Assay method based on measuring the concentration of uncomplexed antibody in a mixture of antibody, antigen and antibody-antigen complex. […] The concentration of free antibody is measured by exposing the mixture to a solid-phase immobilized antigen for a very brief period of time. l practice, this is accomplished by flowing the solution phase antigen-antibody mixture past antigen-coated particles trapped in a flow cell. Data generated by the instrument are analyzed using custom software.
IL-17A was derived from either human (“hu”), cynomolgus monkey (“cyno”), or mouse (“mu”). IL-17A from the same species was used in both the immobilized and solution phases for each KinExA determination. Poly(methyl-methacrylate) (PMMA) particles (98 micron) were coated with human, cyno or mouse IL-17A according to Sapidyne “Protocol for coating PMMA particles with biotinylated ligands having short or nonexistent linker arms.” All experimental procedures were done according to the KinExA 3000 manual. All runs were done in duplicate.
Two-fold serial dilutions of the antigen were prepared and mixed with the antibody at constant concentration. The mixture was incubated for 2 hours at 25° C. to equilibrate.

| Binder | EC50 (rhIL-17A [1]) [nM] | IC50, synoviocyte IL-8 production, rhIL-17A (30 ng/ml) (rhIL-17A [2]) [µg/mL] | IC50, synoviocyte IL-6 production, rhIL-17A (30 ng/ml) (rhIL-17A [3]) [µg/mL] | Kd (rhIL-17A [4]) [nM] |
| --- | --- | --- | --- | --- |
| hu 16C10 VH M96F (antibody, human IgG1, V domains shown, Variant of hu 16C10 wt; Human IgG1/kappa) VH: QVQLQESGPGLVKPSETLSLTCTVSGFSLPSHSVSWIRQPPGKGLEWIGIIWNNGGTDYNSAFKSRVTISVDTSKNQFSLKLSSVTAADTAVYYCARNFYITDYYYENYFMDAWGQGTLVTVSS VL: DIVMTQSPLSLPVTPGEPASISCKSSQSLLFSENQKNYLAWYLQKPGQSPQLLIYWTSTRQSGVPDRFSGSGSGTDFTLKISRVEAEDVGVYYCQQSYYTPYTFGQGTKVEIKR | 0.125 | – | – | – |
| hu 16C10 VH M96K (antibody, human IgG1, V domains shown, Variant of hu 16C10 wt; Human IgG1/kappa; also called hu16C10 (M96K)) VH: QVQLQESGPGLVKPSETLSLTCTVSGFSLPSHSVSWIRQPPGKGLEWIGIIWNNGGTDYNSAFKSRVTISVDTSKNQFSLKLSSVTAADTAVYYCARNKYITDYYYENYFMDAWGQGTLVTVSS VL: DIVMTQSPLSLPVTPGEPASISCKSSQSLLFSENQKNYLAWYLQKPGQSPQLLIYWTSTRQSGVPDRFSGSGSGTDFTLKISRVEAEDVGVYYCQQSYYTPYTFGQGTKVEIKR | 0.068 | 0.025 | 0.06 | – |
| hu 16C10 VH M96L (antibody, human IgG1, V domains shown, Variant of hu 16C10 wt; Human IgG1/kappa) VH: QVQLQESGPGLVKPSETLSLTCTVSGFSLPSHSVSWIRQPPGKGLEWIGIIWNNGGTDYNSAFKSRVTISVDTSKNQFSLKLSSVTAADTAVYYCARNLYITDYYYENYFMDAWGQGTLVTVSS VL: DIVMTQSPLSLPVTPGEPASISCKSSQSLLFSENQKNYLAWYLQKPGQSPQLLIYWTSTRQSGVPDRFSGSGSGTDFTLKISRVEAEDVGVYYCQQSYYTPYTFGQGTKVEIKR | 0.066 | – | – | – |
| hu 16C10 VH M100hF (antibody, human IgG1, V domains shown, Variant of hu 16C10 wt; Human IgG1/kappa; also called hu16C10 (M100hF)) VH: QVQLQESGPGLVKPSETLSLTCTVSGFSLPSHSVSWIRQPPGKGLEWIGIIWNNGGTDYNSAFKSRVTISVDTSKNQFSLKLSSVTAADTAVYYCARNMYITDYYYENYFFDAWGQGTLVTVSS VL: DIVMTQSPLSLPVTPGEPASISCKSSQSLLFSENQKNYLAWYLQKPGQSPQLLIYWTSTRQSGVPDRFSGSGSGTDFTLKISRVEAEDVGVYYCQQSYYTPYTFGQGTKVEIKR | 0.049 | 0.05 | 0.07 | – |
| hu 16C10 VH M100hL (antibody, human IgG1, V domains shown, Variant of hu 16C10 wt; Human IgG1/kappa) VH: QVQLQESGPGLVKPSETLSLTCTVSGFSLPSHSVSWIRQPPGKGLEWIGIIWNNGGTDYNSAFKSRVTISVDTSKNQFSLKLSSVTAADTAVYYCARNMYITDYYYENYFLDAWGQGTLVTVSS VL: DIVMTQSPLSLPVTPGEPASISCKSSQSLLFSENQKNYLAWYLQKPGQSPQLLIYWTSTRQSGVPDRFSGSGSGTDFTLKISRVEAEDVGVYYCQQSYYTPYTFGQGTKVEIKR | 0.053 | – | – | – |
| hu 16C10 VH N60A (antibody, human IgG1, V domains shown, Variant of hu 16C10 wt; Human IgG1/kappa) VH: QVQLQESGPGLVKPSETLSLTCTVSGFSLPSHSVSWIRQPPGKGLEWIGIIWNNGGTDYASAFKSRVTISVDTSKNQFSLKLSSVTAADTAVYYCARNMYITDYYYENYFMDAWGQGTLVTVSS VL: DIVMTQSPLSLPVTPGEPASISCKSSQSLLFSENQKNYLAWYLQKPGQSPQLLIYWTSTRQSGVPDRFSGSGSGTDFTLKISRVEAEDVGVYYCQQSYYTPYTFGQGTKVEIKR | 0.063 | – | – | – |
| hu 16C10 VH N60Q (antibody, human IgG1, V domains shown, Variant of hu 16C10 wt; Human IgG1/kappa) VH: QVQLQESGPGLVKPSETLSLTCTVSGFSLPSHSVSWIRQPPGKGLEWIGIIWNNGGTDYQSAFKSRVTISVDTSKNQFSLKLSSVTAADTAVYYCARNMYITDYYYENYFMDAWGQGTLVTVSS VL: DIVMTQSPLSLPVTPGEPASISCKSSQSLLFSENQKNYLAWYLQKPGQSPQLLIYWTSTRQSGVPDRFSGSGSGTDFTLKISRVEAEDVGVYYCQQSYYTPYTFGQGTKVEIKR | 0.074 | – | – | – |
| hu 16C10 Fab (Fab, V domains shown, also called Fab fragment of hu 16C10) VH: QVQLQESGPGLVKPSETLSLTCTVSGFSLPSHSVSWIRQPPGKGLEWIGIIWNQGGTDYNSAFKSRVTISVDTSKNQFSLKLSSVTAADTAVYYCARNAYITDYYYENYFMDAWGQGTLVTVSS VL: DIVMTQSPLSLPVTPGEPASISCKSSQSLLFSENQKNYLAWYLQKPGQSPQLLIYWTSTRQSGVPDRFSGSGSGTDFTLKISRVEAEDVGVYYCQQSYYTPYTFGQGTKVEIKR | – | – | – | 0.0161 |
